From article PMC6913129
Where two headings read alike, the source gives them in different places.

T1: IFIT1 (UniProt P09914 1-478)
T1 sequence: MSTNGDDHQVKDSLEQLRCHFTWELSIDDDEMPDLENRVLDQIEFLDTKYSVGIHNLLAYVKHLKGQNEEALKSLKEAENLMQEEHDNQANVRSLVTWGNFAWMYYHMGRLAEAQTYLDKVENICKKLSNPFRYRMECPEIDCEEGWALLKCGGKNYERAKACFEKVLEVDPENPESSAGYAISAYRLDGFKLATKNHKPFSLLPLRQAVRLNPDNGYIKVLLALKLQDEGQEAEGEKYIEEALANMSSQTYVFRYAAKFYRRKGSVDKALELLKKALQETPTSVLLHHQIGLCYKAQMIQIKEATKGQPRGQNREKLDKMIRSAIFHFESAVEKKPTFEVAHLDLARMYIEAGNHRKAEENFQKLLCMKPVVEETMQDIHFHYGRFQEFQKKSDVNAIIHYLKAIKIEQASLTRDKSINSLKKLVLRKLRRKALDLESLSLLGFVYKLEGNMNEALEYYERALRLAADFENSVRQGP

T2: IFIT5 (UniProt Q13325 1-482)
T2 sequence: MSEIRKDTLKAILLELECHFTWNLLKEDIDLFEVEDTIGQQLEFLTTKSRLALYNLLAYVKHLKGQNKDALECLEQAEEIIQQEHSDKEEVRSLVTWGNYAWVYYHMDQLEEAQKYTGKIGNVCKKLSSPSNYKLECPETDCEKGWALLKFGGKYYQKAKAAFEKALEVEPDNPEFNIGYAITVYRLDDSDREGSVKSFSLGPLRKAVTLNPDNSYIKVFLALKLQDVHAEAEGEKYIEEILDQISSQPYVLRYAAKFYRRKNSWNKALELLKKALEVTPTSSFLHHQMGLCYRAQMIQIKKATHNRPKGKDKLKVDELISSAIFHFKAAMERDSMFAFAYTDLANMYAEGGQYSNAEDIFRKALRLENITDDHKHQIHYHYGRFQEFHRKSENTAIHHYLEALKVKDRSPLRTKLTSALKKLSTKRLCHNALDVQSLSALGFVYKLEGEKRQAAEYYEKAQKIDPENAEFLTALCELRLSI

B1: GpppA-16ntRNA (ssRNA)
RNA: AGGAGACCGGCCUCGA
modifications: 5' GpppA cap (unmethylated; cap G not in strand)
B2: m7GpppAG-16ntRNA (m7GpppA) (ssRNA)
RNA: AGGAGACCGGCCUCGA
modifications: 5' m7GpppA cap 0
B3: NAD+-16ntRNA (ssRNA)
RNA: AGGAGACCGGCCUCGA
modifications: 5' NAD+ cap (first A is the NAD adenosine, inferred)
B4: NADH-16ntRNA (ssRNA)
RNA: AGGAGACCGGCCUCGA
modifications: 5' NADH cap (first A is the NADH adenosine, inferred)
B5: pppA-16ntRNA (ssRNA)
RNA: AGGAGACCGGCCUCGA
modifications: 5' triphosphate
B6: m7GpppAmG-16ntRNA (ssRNA)
RNA: AGGAGACCGGCCUCGA
modifications: 5' m7GpppAm cap 1 (2'-O-methyl A1)

Experiments:
Test in all cases: BLI
[1] = target: T1, IFIT1
[2] = target: T2, IFIT5
[3] = target: T2, IFIT5; remark: listed apart in the source

| Binder | Kd [1] [nM] | also measured |
| --- | --- | --- |
| B1 | 2.65 |  |
| B2 | 6.12 |  |
| B3 |  | binding result [2]: binds |
| B4 |  | binding result [3]: binds |
| B5 | 23.4 |  |
| B6 | 44 |  |
